How the values were obtained:
iPSCs = assay: Influence of TGF-β signaling on TEP induction from iPSCs, flow cytometry and qPCR on day 14 (Example 2); format: cell-based; conditions: TGF-β signaling modulation during AFE stage (days 5-6) and VPE stage (days 7-8); flow cytometry and qPCR day 14
Protocol: In another exemplary method, the influence of TGF-β signaling during generation of TEPs in two different stages was assessed. FIG. 4A is a schematic illustrating the timelines and culture conditions for the nine protocols performed in the present exemplary method. FIG. 2 provides a chart of agents, modulators, additives, and base mediums used in this and other exemplary methods herein.
For all nine exemplary experimental conditions, on Day 1, iPSCs were plated for differentiation in mTeSR+ supplemented with ROCKi according to the method disclosed above. […]
The 9 protocols testing the effect of TGF-β inhibition (Ly), omission, or activation (T) on TEP induction were tested and analyzed by flow cytometry and qPCR on day 14. FIG. 4B illustrates flow plot quantification of CD205^+EPCAM^+ cells from each differentiation protocol and FIGS. 4C-4E illustrate a qPCR analysis of HOXA3, KRT8, and FOXN1 gene expression in the cells from each differentiation protocol.
During the AFE stage (days 5-6) the influence of: 1) inhibition of TGF-β signaling (Ly—conditions […], 2, and 3); 2) no modulation of TGF-β signaling (conditions 4, 5, and 6); and 3) activation of TGF-β signaling (T—conditions 7, 8, and 9) was assessed. […]

iPSC-derived TEP = assay: RANKL, CD40L and NOTCH agonists added in stage 4 or 5 of differentiation, flow cytometry and qPCR (Example 5); format: cell-based
Source text: FIG. 7 illustrates an exemplary experimental set-up in accordance with certain embodiments of the present disclosure. This experimental set-up for production of add RANKL, CD40L, and NOTCH agonists in different combinations in stage 4 or 5 of differentiation of the progenitor cells.
FIGS. 8A-8B illustrate additional stimulants used to enhance thymic cell production having improved marker representation, 8A and […] illustrate percent representative marker outcome under the varying conditions in accordance with certain embodiments of the present disclosure.
FIGS. 9A-9B illustrate exemplary results from qPCR detection of representative markers FOXN1 and MHC-II (e.g., HLA-DR) protein expression corroborated by gene expression under control and experimental conditions in accordance with certain embodiments of the present disclosure.

Molecule | expression of TEP/TEC markers CD205 and EPCAM, VPE marker HOXA3, TEP markers KRT8 and FOXN1 (iPSCs) | production of FOXN1+EPCAM+ cells (iPSC-derived TEP)
T: TGF-β activation (T), 1 ng/mL TGF-β | no influence | 
CD40L: CD40 pathway activator, ETP-derived signal (protein, UniProt P29965 113-261, looked up) CD40 ligand, soluble form: MQKGDQNPQIAAHVISEASSKTTSVLQWAEKGYYTMSNNLVTLENGKQLTVKRQGLYYIYAQVTFCSNREASSQAPFIASLCLKSPGRFERILLRAANTHSSAKPCGQQSIHLGGVFELQPGASVFVNVTDPSQVSHGTGFTSFGLLKL |  | did not enhance production
RANKL: RANK pathway activator, ETP-derived signal (protein, UniProt O14788 140-317, looked up) Tumor necrosis factor ligand …: IRAEKAMVDGSWLDLAKRSKLEAQPFAHLTINATDIPSGSHKVSLSSWYHDRGWAKISNMTFSNGKLIVNQDGFYYLYANICFRHHETSGDLATEYLQLMVYVTKTSIKIPSSHTLMKGGSTKYWSGNSEFHFYSINVGGFFKLRSGEEISIEVSNPSLLDPDQDATYFGAFKVRDID |  | did not enhance production

From US20250382580A1, “COMPOSITIONS AND METHODS FOR ACCELERATED PRODUCTION OF THYMIC CELLS FROM PLURIPOTENT STEM CELLS” (The Regents of the University of Colorado, a body Corporate, priority 2022, published 2025)
